PMC7356358 (Biomolecules, 2020)
Where two headings read alike, the source gives them in different places.

Legend:
PfHsp70-1 = assay: Interaction of PfHsp40 with PfHsp70-1 by MP-SPR; assay type: binding, Plasmodium falciparum
KPf = settings: MP-SPR, PfHsp40 over immobilized KPf, three runs
Experimental: The analysis was conducted both in the absence and presence of 5 mM of ATP/ADP. The ligand and analyte pairs were swapped, and the data generated were analyzed after global fitting. Association was allowed for 2 min, and dissociation was monitored for 8 min. Data analysis was conducted using TraceDrawer software version 1.8 (Ridgeview Instruments).

[1] = ATPase activity (released inorganic phosphate); assay type: biochemical; settings: PfHsp40 preparation alone, non-ATPase control
Experimental: Hsp70 proteins at final concentration of 0.4 μM were each incubated for 5 min in buffer HKMD (10 mM HEPES-KOH pH 7.5, 100 mM KCl, 2 mM MgCl2 and 0.5 mM DTT). The reaction was initiated by the addition of ATP at various concentrations (0–5 mM) and samples were analyzed every 30 min for 4 h.

DnaK = DnaK (Escherichia coli, UniProt P0A6Y8); settings: MP-SPR, PfHsp40 over immobilized DnaK, three runs
Chain of DnaK (P0A6Y8 whole entry): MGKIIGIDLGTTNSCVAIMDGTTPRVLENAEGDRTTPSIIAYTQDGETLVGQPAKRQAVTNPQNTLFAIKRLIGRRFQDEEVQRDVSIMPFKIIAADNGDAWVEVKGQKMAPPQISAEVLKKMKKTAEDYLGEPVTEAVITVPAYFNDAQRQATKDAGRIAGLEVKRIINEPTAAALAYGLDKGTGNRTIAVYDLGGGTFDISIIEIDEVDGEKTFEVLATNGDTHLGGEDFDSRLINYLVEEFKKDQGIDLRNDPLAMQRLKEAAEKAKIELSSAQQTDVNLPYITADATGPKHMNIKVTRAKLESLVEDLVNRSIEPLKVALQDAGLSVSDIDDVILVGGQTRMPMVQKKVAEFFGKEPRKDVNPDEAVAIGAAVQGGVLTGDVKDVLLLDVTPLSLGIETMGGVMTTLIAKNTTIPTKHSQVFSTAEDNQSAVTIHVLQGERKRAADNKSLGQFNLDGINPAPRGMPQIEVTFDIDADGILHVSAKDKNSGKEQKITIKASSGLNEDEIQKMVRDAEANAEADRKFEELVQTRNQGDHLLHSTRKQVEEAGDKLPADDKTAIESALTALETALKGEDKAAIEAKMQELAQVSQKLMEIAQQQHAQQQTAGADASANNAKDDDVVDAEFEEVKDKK

Chain of PfHsp70-1 (P11144 1-630 limits assumed): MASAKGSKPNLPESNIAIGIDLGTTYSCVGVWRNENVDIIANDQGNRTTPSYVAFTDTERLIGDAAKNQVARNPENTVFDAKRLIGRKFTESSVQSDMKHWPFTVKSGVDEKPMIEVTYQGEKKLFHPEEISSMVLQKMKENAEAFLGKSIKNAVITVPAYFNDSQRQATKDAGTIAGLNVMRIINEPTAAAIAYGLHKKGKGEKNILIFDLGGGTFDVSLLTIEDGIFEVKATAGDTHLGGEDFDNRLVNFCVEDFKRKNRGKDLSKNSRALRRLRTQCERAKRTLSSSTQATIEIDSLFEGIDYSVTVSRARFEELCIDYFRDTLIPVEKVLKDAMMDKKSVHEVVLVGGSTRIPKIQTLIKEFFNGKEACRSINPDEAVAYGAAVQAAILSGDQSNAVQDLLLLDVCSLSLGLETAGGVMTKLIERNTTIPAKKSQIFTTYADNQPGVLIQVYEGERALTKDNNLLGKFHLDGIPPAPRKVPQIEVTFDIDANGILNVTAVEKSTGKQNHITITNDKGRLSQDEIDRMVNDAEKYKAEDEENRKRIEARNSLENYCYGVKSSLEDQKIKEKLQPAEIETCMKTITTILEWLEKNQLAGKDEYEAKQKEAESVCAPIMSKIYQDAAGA
Chain of KPf (P11144 405-631 limits assumed): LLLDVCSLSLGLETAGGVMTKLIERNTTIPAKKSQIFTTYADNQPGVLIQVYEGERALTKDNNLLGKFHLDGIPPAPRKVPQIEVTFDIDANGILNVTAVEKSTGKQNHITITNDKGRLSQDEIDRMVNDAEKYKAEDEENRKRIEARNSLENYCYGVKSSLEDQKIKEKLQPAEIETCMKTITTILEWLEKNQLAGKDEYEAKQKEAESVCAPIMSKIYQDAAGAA

B1: PfHsp40: P. falciparum type I Hsp40 (PF3D7_1437900), co-chaperone of PfHsp70-1 (protein)
chain: MFFSSGFPFDSMGGQQARRKREVNNNKFYEVLNLKKNCTTDEVKKAYRKLAIIHHPDKGGDPEKFKEISRAYEVLSDEEKRKLYDEYGEEGLENGEQPADATDLFDFILNAGKGKKKRGEDIVSEVKVTLEQLYNGATKKLAISKDIICTNCEGHGGPKDAKVDCKQCNGRGTKTYMRYHSSVLHQTEVTCNTCRGKGKIFNEKDKCANCKGMCVLKTRKIIEVYIPKGAPNKHKIVFNGEADEKPNVITGNLVVILNEKQHPVFRREGIDLFMNYKISLYESLTGFVAEVTHLDERKILVNCTNSGFIRHGDIREVLDEGMPTYKDPFKKGNLYITFEVEYPMDLIITNENKEVLKILKKQNEVEKKYDLENSELEVVSCSPVDKEYIKVRVTKQQQQQQQEAYDDEDHQPEMEGGRVACAQQ
modifications: left off: His6, N-terminal, state not stated
Ka (PfHsp70-1; PfHsp40 over immobilized PfHsp70-1, + 5 mM ADP, three runs): 1.53 (±0.03) × 10^3 Ms^−1 | Ka (PfHsp70-1; PfHsp40 over immobilized PfHsp70-1, no nucleotide, three runs): 1.33 (±0.03) × 10^3 Ms^−1 | Ka (PfHsp70-1; analyte PfHsp40 0-2000 nM over immobilized PfHsp70-1, + 5 mM ATP, global fit, mean (SD) of three runs): 1.81 (±0.01) × 10^2 Ms^−1 | Ka (KPf; + 5 mM ADP): 1.36 (±0.26) × 10^2 Ms^−1 | Ka (KPf; + 5 mM ATP): 1.72 (±0.02) × 10^2 Ms^−1 | Ka (KPf; no nucleotide): 1.24 (±0.04) × 10^4 Ms^−1 | independent basal ATPase activity [1]: no detectable | Ka (DnaK; + 5 mM ADP): 1.16 (±0.06) × 10^2 Ms^−1 | Ka (DnaK; + 5 mM ATP): 1.22 (±0.02) × 10^2 Ms^−1 | Ka (DnaK; no nucleotide): 1.12 (±0.02) × 10^2 Ms^−1
